{"source": "the supplement of paper PMC9112550", "about": "“Optimization of the antimicrobial peptide Bac7 by deep mutational scanning” (BMC Biology, 2022);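 note: peptides expressed intracellularly from a pBAD plasmid library in pooled LB shake-flask culture, induced with 0.3% L-arabinose, DNA abundance read by NGS, three biological replicates, DESeq2 with apeglm shrinkage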"}
{"tested_on": "Escherichia coli TOP10", "assay": "shrunken log2 fold change of peptide-encoding DNA abundance (4.5 h post-induction vs induction); higher = less antimicrobial activity (less host growth inhibition)", "conditions": "time post-induction: 4.5 h; library: site-saturation at positions 5, 18, 19, 20"}
{"sequence": "RRIRIRPPRLPRPRPRPLGSPRP", "shrunken log2 fold change": -0.41}
{"sequence": "RRIRWRPPRLPRPRPRPCTAPRP", "shrunken log2 fold change": 0.119}
{"sequence": "RRIRARPPRLPRPRPRPMDEPRP", "shrunken log2 fold change": 1.02}
{"sequence": "RRIRERPPRLPRPRPRPQRFPRP", "shrunken log2 fold change": 0.0827}
{"sequence": "RRIRIRPPRLPRPRPRPAIGPRP", "shrunken log2 fold change": -0.207}
{"sequence": "RRIRCRPPRLPRPRPRPIIPPRP", "shrunken log2 fold change": -0.645}
{"sequence": "RRIRSRPPRLPRPRPRPTTRPRP", "shrunken log2 fold change": 0.222}
{"sequence": "RRIRLRPPRLPRPRPRPPFSPRP", "shrunken log2 fold change": -0.25}
{"sequence": "RRIRERPPRLPRPRPRPMLPPRP", "shrunken log2 fold change": -0.397}
{"sequence": "RRIRRRPPRLPRPRPRPRCTPRP", "shrunken log2 fold change": 0.0974}
{"sequence": "RRIRPRPPRLPRPRPRPWFAPRP", "shrunken log2 fold change": -0.116}
{"sequence": "RRIRMRPPRLPRPRPRPTCVPRP", "shrunken log2 fold change": 0.424}
{"sequence": "RRIRARPPRLPRPRPRPSLIPRP", "shrunken log2 fold change": -0.0273}
{"sequence": "RRIRLRPPRLPRPRPRPMNEPRP", "shrunken log2 fold change": -0.00493}
{"sequence": "RRIRARPPRLPRPRPRPDLCPRP", "shrunken log2 fold change": 0.393}
{"sequence": "RRIRRRPPRLPRPRPRPRRVPRP", "shrunken log2 fold change": 0.347}
{"sequence": "RRIRSRPPRLPRPRPRPQKFPRP", "shrunken log2 fold change": -0.14}
{"sequence": "RRIRERPPRLPRPRPRPDTTPRP", "shrunken log2 fold change": 0.0503}
{"sequence": "RRIRNRPPRLPRPRPRPWIQPRP", "shrunken log2 fold change": -0.209}
{"sequence": "RRIRNRPPRLPRPRPRPWSGPRP", "shrunken log2 fold change": -0.173}
{"sequence": "RRIRNRPPRLPRPRPRPEQNPRP", "shrunken log2 fold change": -0.21}
{"sequence": "RRIRPRPPRLPRPRPRPAYDPRP", "shrunken log2 fold change": -0.26}
{"sequence": "RRIRGRPPRLPRPRPRPQSWPRP", "shrunken log2 fold change": 0.445}
{"sequence": "RRIRSRPPRLPRPRPRPFARPRP", "shrunken log2 fold change": -0.172}
{"sequence": "RRIRARPPRLPRPRPRPICVPRP", "shrunken log2 fold change": 0.154}
{"sequence": "RRIRYRPPRLPRPRPRPKVEPRP", "shrunken log2 fold change": -0.157}
{"sequence": "RRIRNRPPRLPRPRPRPIWAPRP", "shrunken log2 fold change": 0.0814}
{"sequence": "RRIRQRPPRLPRPRPRPVMRPRP", "shrunken log2 fold change": 0.444}
{"sequence": "RRIRMRPPRLPRPRPRPCLSPRP", "shrunken log2 fold change": -0.0592}
{"sequence": "RRIRRRPPRLPRPRPRPWMLPRP", "shrunken log2 fold change": 0.227}
{"sequence": "RRIRRRPPRLPRPRPRPPHHPRP", "shrunken log2 fold change": 1.09}
{"sequence": "RRIRGRPPRLPRPRPRPMKEPRP", "shrunken log2 fold change": 0.31}
{"sequence": "RRIRNRPPRLPRPRPRPFCLPRP", "shrunken log2 fold change": -0.363}
{"sequence": "RRIRFRPPRLPRPRPRPTFWPRP", "shrunken log2 fold change": -0.0559}
{"sequence": "RRIRIRPPRLPRPRPRPEVTPRP", "shrunken log2 fold change": -0.0113}
{"sequence": "RRIRWRPPRLPRPRPRPDSLPRP", "shrunken log2 fold change": -0.12}
{"sequence": "RRIRLRPPRLPRPRPRPAWHPRP", "shrunken log2 fold change": 0.183}
{"sequence": "RRIRLRPPRLPRPRPRPCCYPRP", "shrunken log2 fold change": -0.611}
{"sequence": "RRIRERPPRLPRPRPRPEEEPRP", "shrunken log2 fold change": 0.102}
{"sequence": "RRIRRRPPRLPRPRPRPCNSPRP", "shrunken log2 fold change": 0.00408}
{"sequence": "RRIRPRPPRLPRPRPRPAGAPRP", "shrunken log2 fold change": 0.309}
{"sequence": "RRIRVRPPRLPRPRPRPLYIPRP", "shrunken log2 fold change": -0.555}
{"sequence": "RRIRGRPPRLPRPRPRPINSPRP", "shrunken log2 fold change": 0.134}
{"sequence": "RRIRQRPPRLPRPRPRPGATPRP", "shrunken log2 fold change": 0.273}
{"sequence": "RRIRMRPPRLPRPRPRPPREPRP", "shrunken log2 fold change": 1.19}
{"sequence": "RRIRQRPPRLPRPRPRPFIQPRP", "shrunken log2 fold change": -0.321}
{"sequence": "RRIRMRPPRLPRPRPRPVEFPRP", "shrunken log2 fold change": -0.0638}
{"sequence": "RRIRQRPPRLPRPRPRPYTEPRP", "shrunken log2 fold change": -0.00136}
{"sequence": "RRIRERPPRLPRPRPRPHDDPRP", "shrunken log2 fold change": -0.147}
{"sequence": "RRIRVRPPRLPRPRPRPKVHPRP", "shrunken log2 fold change": -0.192}
{"sequence": "RRIRFRPPRLPRPRPRPATQPRP", "shrunken log2 fold change": -0.00992}
{"sequence": "RRIRNRPPRLPRPRPRPDMIPRP", "shrunken log2 fold change": -0.667}
{"sequence": "RRIRMRPPRLPRPRPRPERNPRP", "shrunken log2 fold change": 0.0507}
{"sequence": "RRIRQRPPRLPRPRPRPTIQPRP", "shrunken log2 fold change": 0.0369}
{"sequence": "RRIRIRPPRLPRPRPRPETAPRP", "shrunken log2 fold change": 0.0478}
{"sequence": "RRIRWRPPRLPRPRPRPQANPRP", "shrunken log2 fold change": 0.395}
{"sequence": "RRIRIRPPRLPRPRPRPFTAPRP", "shrunken log2 fold change": -0.138}
{"sequence": "RRIRNRPPRLPRPRPRPTRWPRP", "shrunken log2 fold change": 0.292}
{"sequence": "RRIRMRPPRLPRPRPRPGHIPRP", "shrunken log2 fold change": 0.0817}
{"sequence": "RRIRCRPPRLPRPRPRPWNDPRP", "shrunken log2 fold change": 0.00383}
